The test system of series [1] is T1, substrate c, Mca-Gly-Pro-Ile-Leu-Phe**Phe-Arg-Leu-Lys(Dnp)-DArg-CONH2.
T1 sequence: GPILFFRLKR

Series [2] deals with T2, substrate d, Mca-Ala-Gly-Phe-Ser-Leu**Gly-Pro-Lys(Dnp)-DArg-CONH2.
T2 sequence: AGFSLGPKR

The test system of series [3] is T3, substrate b, Mca-Gly-Pro-Ile-Leu-Phe**Phe-Arg-Leu-Gly-Lys(Dnp)-DArg-CONH2.
T3 sequence: GPILFFRLGKR

Series [4] relates to T4, substrate a, Mca-Gly-Ser-Pro-Ala-Phe**Leu-Ala-Lys(Dnp)-DArg-CONH2.
T4 sequence: GSPAFLAKR

For series [5], the system named is T5, substrate e, Mca-Ala-Gly-Phe-Ser-Leu**Pro-Ala-Lys(Dnp)-D-Arg-CONH2.
T5 sequence: AGFSLPAKR

2 substances from patent publication US20130251640 can be followed below.

By Km is commonly meant the substrate concentration at which the rate is half of its maximum. With “Cathepsin E (purchased from Calbiochem, EMD Bioscience)”, the “fluorescence intensity on hydrolysis (FRET substrate)” value was “Compared to substrate b, substrate c shows superior increase in the fluorescence intensity upon hydrolysis by both Cath E and Cath D” in series [1]; “substrate d showed relatively slow hydrolysis and did not reach saturation within the monitored period” in series [2]; “Compared to substrate b, substrate c shows superior increase in the fluorescence intensity upon hydrolysis by both Cath E and Cath D” in series [3]; “A prominent fluorescence increase of substrate a was observed instantaneously upon incubation with Cath E” in series [4]; “substrate e was activated by Cath E quickly and reached saturation within 10 minutes” in series [5]. The substance further showed a Kcat in series [5] of 322 S^-1. This substance also yielded a Kcat/Km in series [5] of 16.7. Further, the Km in series [5] is 19.4 µM. Also, the Vmax in series [5] amounted to 2.2 µM S^-1.
Regarding “Cathepsin D (purchased from Calbiochem, EMD Bioscience)”, the “fluorescence intensity on hydrolysis (FRET substrate)” value was “Compared to substrate b, substrate c shows superior increase in the fluorescence intensity upon hydrolysis by both Cath E and Cath D” in series [1]; “both substrates d and e exhibited similar slow hydrolysis by Cath D” in series [2]; “Compared to substrate b, substrate c shows superior increase in the fluorescence intensity upon hydrolysis by both Cath E and Cath D” in series [3]; “such leading increase in fluorescence signal with Cath E was observed as well upon incubation with Cath D” in series [4]; “both substrates d and e exhibited similar slow hydrolysis by Cath D” in series [5]. Besides, in series [5], the Kcat/Km result is given as “NM^a”.
